Values joined by “and” are separate entries in the source; they are usually repeats but may differ in a detail not shown here. Equal values may be shown once. Values belong to the substance of their own block, whether it stands above or below them.
How the values were obtained:
[1] = molecular target: recombinant biotinylated L^d immobilized on a support, loaded with QL9 peptide (mouse) (UniProt P01887)
[2] = molecular target: L^d on cells loaded with QL9 peptide (mouse) (UniProt P01887)
[3] = molecular target: 2C T-cell receptor (on T-cells of 2C TCR transgenic mice) (mouse); experiment: staining of purified CD8+ lymph node cells of 2C mice
[4] = molecular target: 2C T-cell receptor (on T-cells of 2C TCR transgenic mice) (mouse); experiment: flow cytofluorometry of purified 2C TCR transgenic lymph node T-cells
[5] = molecular target: recombinant biotinylated L^d immobilized on avidin-coated sheep red blood cells (mouse); experiment: flow cytofluorometry of L^d-coated SRBC with anti-L^d antibody 30.5.7 (FIG. 8)

Substance: 2C T-cell receptor (on T-cells of 2C TCR transgenic mice)
- percent of lymphocytes included in rosettes [1]: 30% and 40%
- percent of lymphocytes included in rosettes [2]: 30% and 40%

Substance: monoclonal antibody 1B2 (anti-clonotypic antibody to the 2C T-cell receptor)
- percent of cells positive for staining [3]: > 95%
- percent of cells positive for staining [4]: 97% and 98%

- percent of cells labeled [5]: 99.8%
Substance: monoclonal antibody 30.5.7 (anti-L^d)

From patent publication US20050152916A1
